Experimental findings from US11685791B2, “Antibody binding specifically to N-terminal region of lysyl-tRNA synthetase exposed on cell membrane” (Zymedi Co., Ltd., priority 2017, dated 2023) are described below.

In data set [1] the test system is pulmonary arterial hypertension (PAH) models. The experiment in a line: Blood pressure and cardiac output in monocrotaline PAH model. Format: in vivo, rat. The settings on record: MCT + Sildenafil 25 mpk orally every day, 3 weeks. As for the experimental part: After three weeks, the rats were anesthetized with isoflurane, and measured for blood flow and pressure by using a high-precision pneumatic measurement system (MPVS cardiovascular pressure and volume system, model name: MPVS Ultra, manufacturer: Millar Instruments). The right ventricular end-systolic pressure (RVESP), right ventricular end-diastolic pressure, left ventricular end-systolic pressure, left ventricular end-diastolic pressure were measured using an exclusive catheter (Mikro-Tip rat pressure catheter, manufacturer: Millar Instruments). The cardiac output was measured using a perivascular blood flow probe (Transonic Flow probes, manufacturer: Millar Instruments), and experimental method thereof was performed by the same method as disclosed in the following literature: Pacher P, Nagayama T, Mukhopadhyay P, Batkai S, Kass D A. Measurement of cardiac function using pressure-volume conductance catheter technique in mice and rats. Nat Protoc 2008; 3(9):1422-34.
The models of PAH, which is a disease having a close relation between immune cell invasion and pathological phenomena, were treated with N3 IgG antibody (1 mpk or 10 mpk) for 3 weeks (i.v., twice a week), and then measured for right ventricular end-systolic pressure (RVESP), right ventricular end-diastolic pressure (RVEDP), left ventricular end-systolic pressure (LVESP), left ventricular end-diastolic pressure (LVEDP), and cardiac output (CO).

Data set [2] has the same test system. Briefly: Echocardiography in PAH model. The class given is in vivo, rat. Conditions: MCT PAH rats, five animals per group.
Source text: (§3) To induce PAH in seven-week-old SD rats (Orient Bio), 60 mpk of monocrotaline (MCT) was subcutaneously injected. […] All antibodies were i.v. injected twice a week, and sildenafil was orally administered every day.
A short description of data set [3]: Body weight change in PAH model. Conditions: MCT + Sildenafil, n = 5.
Source text: as §3
The target of data set [4] is T1, KRS N-terminal region exposed on the cell membrane (A549 cells, myc-KRS WT/T52D/T52A) (Homo sapiens, UniProt Q15046, T52D).
T1 construct: expressed in transfected cells; host or cells: A549
Briefly: Immunofluorescence of scFv clones on cells with KRS N-terminal region exposed on the cell membrane. Format: cell-based. Conditions: A549 cells expressing myc-KRS T52D (active), T52A (inactive) or WT-KRS (laminin untreated). The procedure:
(§1) Immunofluorescence was performed to investigate whether the scFv clones selected in Example <1-5> actually bound to the KRS N-terminal region exposed on the cell membrane. In order to make a phenomenon in which KRS is exposed on the membrane, KRS-T52D mutant (active mutant) was used. […] After incubation for 24 h, the cells were incubated using serum-free media (RPMI 1640 media) at 37° C. for 1 h. Thereafter, the cells were treated with 10 μg/ml laminin (L2020; Sigma) and then incubated at 37° C. for 1 h.
(§2) The prepared samples were washed with PBS (4° C.), fixed by the treatment with 4% paraformaldehyde for 10 min, and then washed. The samples were blocked with CAS block for 10 min, and treated with the scFv and Myc antibodies for 2 h. Thereafter, the unbound antibodies were washed out, and incubated with secondary antibodies for 1 h in a dark room. DAPI staining was performed for 10 min before mounting.

In the next data set the target is T2, KRS N-terminus (Homo sapiens, UniProt Q15046).
T2 construct: a KRS fragment composed of amino acid residues 1-200 in the N-terminus; expressed in transfected cells; host or cells: A549
Briefly: Western blotting of scFv clones against full-length KRS and KRS fragments. The class given is binding. The settings on record: full-length KRS, fragment lacking N-terminal aa 1-71, fragment aa 1-200; transformed A549 lysate. The source says:
To investigate whether the scFv clones (N3, N5, N7, and N9) finally selected through Example <1-6> actually bound to KRS N-terminus, full-length KRS (denoted by F, SEQ ID NO: 76), a KRS fragment with deletion in amino acids at positions 1-71 in the N-terminus (defined by SEQ ID NO: 1), and a KRS fragment composed of amino acid residues 1-200 in the N-terminus (defined by SEQ ID NO: 2) were used to conduct western blotting.
A549 cells were transformed by the method as described in Example <1-6> using polynucleotides encoding full-length KRS and KRS fragments. Thereafter, the cells were lysed, and western blotting was performed by the same method as described in Example <1-4>.

The next data set addresses T3, KRS 1-207 aa (Homo sapiens, UniProt Q15046).
T3 construct: to the antigen (KRS 1-207 aa)
Briefly: SPR (Biacore 2000) binding of IgGs to immobilized KRS. The settings on record: immobilized KRS 185 RU, antibody 6.25-100 nM. The procedure:
The quantitative binding ability of the purified antibody proteins (N3 IgG and N5 IgG) to the antigen (KRS 1-207 aa) were measured using Biacore 2000 SPR (surface plasmon resonance) (GE healthcare, US) biosensor. After KRS was immobilized on a sensor chip (CM5, GE healthcare, US), antibody proteins (6.25-100 nM), which were serially diluted with HES buffer solution (10 mM HEPES, pH 7.4, 150 mM NaCl, 3 mM EDTA, 0.005% surfactant P20), were allowed to flow at a rate of 30 μl/min for 3 min, and 1 M NaCl/20 mM NaOH was allowed to flow at a rate of 30 μl/min for 3 min, thereby inducing the dissociation of proteins bound to the antigen. Mock IgG was used as control. Specific experiment conditions are as follows:
Immobilized level: 185 RU
Antibody: N3 IgG and N5 IgG
Running buffer: HBS-N buffer
Regeneration: 2 M NaCl, 20 mM NaOH (flow 30 ul/min 1 min)
The affinity was obtained from the kinetic rate constants (ka and kd) and equilibrium dissociation constants (KD) by using BIA evaluation ver. 3.2 software. FIGS. 6A-6B show SPR graph results of N3 IgG and N5 IgG, respectively. It was confirmed from FIGS. 6A-6B and Table 3 that N3 IgG and N5 IgG of the present invention has high specific binding ability to the KRS N-terminal region.

The target in another data set is T4, KRS (Homo sapiens, UniProt Q15046).
T4 construct: endogenous in cells; host or cells: HCT116
The experiment in a line: Western blotting and immunoprecipitation of converted IgGs. The class given is binding. The settings on record: HCT116 cell lysate.

In data set [5] the target is T5, extracellularly exposed KRS N-terminal region (Homo sapiens, UniProt Q15046).
T5 construct: expressed in transfected cells; host or cells: A549
Briefly: Immunofluorescence staining of converted IgGs. The class given is cell-based. The settings on record: WT-KRS membrane localization induced by laminin treatment. The procedure:
as §1, §2
To investigate whether the IgGs constructed in the present invention actually bound to the region of KRS exposed on the cell membrane, immunofluorescence was performed. Immunofluorescence staining was performed by the same method as described in Example <1-6> by using N3 IgG and N5 IgG as representatives.

T1 sequence (Q15046 whole entry T52D): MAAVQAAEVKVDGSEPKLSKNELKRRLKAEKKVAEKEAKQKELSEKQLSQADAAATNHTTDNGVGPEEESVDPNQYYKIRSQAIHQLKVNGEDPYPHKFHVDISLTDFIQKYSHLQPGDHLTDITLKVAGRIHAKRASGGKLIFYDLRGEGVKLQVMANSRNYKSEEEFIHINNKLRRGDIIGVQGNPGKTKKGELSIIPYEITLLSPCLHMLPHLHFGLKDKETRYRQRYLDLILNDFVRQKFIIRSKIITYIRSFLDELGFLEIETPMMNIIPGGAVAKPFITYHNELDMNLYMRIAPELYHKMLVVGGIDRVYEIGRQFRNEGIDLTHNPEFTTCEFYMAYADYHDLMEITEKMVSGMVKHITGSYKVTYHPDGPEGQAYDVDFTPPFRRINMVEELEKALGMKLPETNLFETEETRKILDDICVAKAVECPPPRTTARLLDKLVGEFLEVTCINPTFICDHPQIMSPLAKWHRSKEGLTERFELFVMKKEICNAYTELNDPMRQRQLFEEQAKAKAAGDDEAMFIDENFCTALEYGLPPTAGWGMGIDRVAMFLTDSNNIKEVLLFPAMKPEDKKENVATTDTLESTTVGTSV
T2 sequence (Q15046 1-200): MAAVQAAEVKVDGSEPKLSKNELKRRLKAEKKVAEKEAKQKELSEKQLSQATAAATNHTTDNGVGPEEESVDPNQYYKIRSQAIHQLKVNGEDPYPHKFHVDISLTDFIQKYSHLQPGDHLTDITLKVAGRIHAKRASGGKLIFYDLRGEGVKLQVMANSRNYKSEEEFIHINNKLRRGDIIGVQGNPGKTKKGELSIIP
T3 sequence (Q15046 1-207): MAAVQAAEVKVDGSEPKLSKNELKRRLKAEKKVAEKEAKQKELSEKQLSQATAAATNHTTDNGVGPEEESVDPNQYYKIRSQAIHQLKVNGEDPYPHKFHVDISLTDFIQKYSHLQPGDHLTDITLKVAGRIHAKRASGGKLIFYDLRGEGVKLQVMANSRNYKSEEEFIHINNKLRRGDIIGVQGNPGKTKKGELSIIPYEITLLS
T5 sequence (Q15046 whole entry): as the sequence (Q15046 whole entry T52D) above, with D52T counted along it
T4 sequence (Q15046 whole entry): as the sequence (Q15046 whole entry T52D) above, with D52T counted along it

In the case of `CCCc1nn(C)c2c(=O)[nH]c(-c3cc(S(=O)(=O)N4CCN(C)CC4)ccc3OCC)nc12` [Sildenafil, sildenafil, reference compound], the CO in data set [1] (n = 4) was 49.6 ± 17.7 mL/min. Also, in data set [1] (n = 5), the LVEDP stood at 3.6 ± 2.3 mmHg, the LVESP turned out to be 83.2 ± 4.7 mmHg, the RVEDP stood at 2.6 ± 1.3 mmHg and the RVESP is on record as 48.4 ± 9.6 mmHg. Further, the “D-shaped left ventricle finding indicating pressure overload in the right ventricle” value in data set [2] is “three”. In data set [3], the “body weight, absolute change” value is given as 104.1 ± 26.4 g and the “body weight, relative change” value is 49.8 ± 10.5%.

B1: N9 scFv: scFv clone consisting of the amino acid sequence defined by SEQ ID NO: 73 (protein)
scFv: EVQLLESGGGLVQPGGSLRLSCAASGFTFSNYDMSWVRQAPGKGLEWVSWIYSGDSSKYYADSVKGRFTISRDNSKNTLYLQMNSLRAEDTAVYYSARETRTFDYWGQGTLVTVSSGGGGSGGGGSGGGGSQSVLTQPPSASGTPGQRVTISCTGSSFNIGSNAVYWYQQLPGTAPKLLIYYNSQRPSGVPDRFSGSKSGTSASLAISGLRSEDEADYYCGSWDASLSGYVFGGGTKLTVL
On to B1, for which the “binding to membrane-exposed KRS N-terminal region (immunofluorescence)” value in data set [4] is on record as “binding only active mutant cells”. Moreover, the “specific binding to KRS N-terminus (western blotting)” value (from here on “specific binding to KRS N-terminus”) with KRS N-terminus is reported as “specifically bound to the KRS N-terminus”.

B2: N5 IgG: IgG converted from N5 scFv; VH SEQ ID NO: 53, VL SEQ ID NO: 55 (antibody, V domains shown)
VH: EVQLLESGGGLVQPGGSLRLSCAASGFTFSDYAMSWVRQAPGKGLEWVSWIYSGSGNKYYADSVKGRFTISRDNSKNTLYLQMNSLRAEDTAVYYCARMGLDFDYWGQGTLVTVSS
VL: QSVLTQPPSASGTPGQRVTISCTGSSSNIGNNYVSWYQQLPGTAPKLLIYDDNQRPSGVPDRFSGSKSGTSASLAISGLRSEDEADYYCGTWDDSLSAYVFGGGTKLTVL
B2: in the data set with KRS 1-207 aa, the ka amounted to 3.13e+06 M⁻¹ s⁻¹ and the kd is 0.003282 s⁻¹. Further, the “KRS binding ability (western blotting and immunoprecipitation)” value with KRS was “bound to KRS”. Further, in data set [5], the “binding to extracellularly exposed KRS N-terminal region (immunofluorescence)” value is “favorably bound specifically”.

B3: N3 scFv: scFv clone consisting of the amino acid sequence defined by SEQ ID NO: 67 (protein)
scFv: EVQLLESGGGLVQPGGSLRLSCAASGFTFSSYDMSWVRQAPGKGLEWVSAISYDNGNTYYADSVKGRFTISRDNSKNTLYLQMNSLRAEDTAVYYSARMALDFDYWGQGTLVTVSSGGGGSGGGGSGGGGSQSVLTQPPSASGTPGQRVTISCTGSSSNIGSNYVTWYQQLPGTAPKLLIYDNSNRPSGVPDRFSGSKSGTSASLAISGLRSEDEADYYCASWDDSLSAYVFGGGTKLTVL
B3: in data set [4], the “binding to membrane-exposed KRS N-terminal region (immunofluorescence)” value is recorded as “binding only active mutant cells”. Besides, the “specific binding to KRS N-terminus” value in the data set with KRS N-terminus is recorded as “specifically bound to the KRS N-terminus”.

B4: N5 scFv: scFv clone consisting of the amino acid sequence defined by SEQ ID NO: 69 (protein)
scFv: EVQLLESGGGLVQPGGSLRLSCAASGFTFSDYAMSWVRQAPGKGLEWVSWIYSGSGNKYYADSVKGRFTISRDNSKNTLYLQMNSLRAEDTAVYYCARMGLDFDYWGQGTLVTVSSGGGGSGGGGSGGGGSQSVLTQPPSASGTPGQRVTISCTGSSSNIGNNYVSWYQQLPGTAPKLLIYDDNQRPSGVPDRFSGSKSGTSASLAISGLRSEDEADYYCGTWDDSLSAYVFGGGTKLTVL
Regarding B4, the “binding to membrane-exposed KRS N-terminal region (immunofluorescence)” value in data set [4] is listed as “binding only active mutant cells”. For the same molecule, the “specific binding to KRS N-terminus” value with KRS N-terminus is listed as “specifically bound to the KRS N-terminus”.

B5: N7 scFv: scFv clone consisting of the amino acid sequence defined by SEQ ID NO: 71 (protein)
scFv: EVQLLESGGGLVQPGGSLRLSCAASGFTFSDYYMSWVRQAPGKGLEWVSGIYSGTGSIYYADSVEGRFTISRDNSKNTLYLQMNSLRAEDTAVYYSARPPYHFDYWGQGTLVTVSSGGGGSGGGGSGGGGSQSVLTQPPSASGTPGQRVTISCTGSSSNIGSNYVTWYQQLPGTAPKLLIYADSNRPSGVPDRFSGSKSGTSASLAISGLRSEDEADYYCGAWDYSLSGYVFGGGTKLTVL
B5: the “binding to membrane-exposed KRS N-terminal region (immunofluorescence)” value in data set [4] is reported as “binding only active mutant cells”. Moreover, the “specific binding to KRS N-terminus” value with KRS N-terminus is “specifically bound to the KRS N-terminus”.
